Test results reported in article PMC8646926 (Advanced Biology, 2021).

Target: the molecule itself
Assay: 15N-1H HSQC NMR (line broadening and signal loss)

B1: SARS-CoV-2 Nsp9, wild type, purified recombinant (natural protein, UniProt P0DTD1 4141-4253, looked up)
chain: NNELSPVALRQMSCAAGTTQTACTDDNALAYYNTTKGGRFVLALLSDLQDLKWARFPKSDGTGTIYTELEPPCRFVTDTPKGPKVKYLYFIKGLNNLNRGMVLGSLAATVRLQ
modifications: 15N or 13C,15N isotope labelling in the NMR experiments
B1: binds.
